The values below come from patent US20260274980A1 (BIOARCTIC, published 2026).

For the assay, the target named is T1, human transferrin receptor 1 (hTfR1) on cell surfaces (human, UniProt P02786 1-760).
T1 construct: Endogenous receptor on hCMEC/D3, THP-1, K562 and Ramos cells; also called CD71; endogenous hTfR1
Nature of the assay: flow cytometry on Ramos cells (hTfR1 on the surface), Fc receptors blocked, overnight at 4 °C, detection with anti-human IgG-Alexa Fluor 488. The protocol:
Binding to hTfR1 on cells was measured on the immortalized human B lymphocyte cell line Ramos (Sigma, cat: 85030802). This cell line is known for expressing high levels of hTfR1 on the cell surface. Fcγ receptors were blocked using Fc receptor blocker (Innovex biosciences, #NB309-4X-40) for 30 min at 4° C., after which the cells were washed in PBS. The cells were seeded in a 96 well V bottom plate (#249570, Thermo Scientific Nunc), and serially diluted Gen 2A constructs were added and the plate was incubated at 4° C. overnight. The cells were washed with PBS with 1% BSA and then fixed with freshly prepared 4% formaldehyde (Thermo Scientific Pierce, #28906) diluted in PBS for 15 min at room temperature. The cells were washed with PBS containing 1% BSA, and then stained. […] Staining was carried out for 30 min at 4° C. After incubation with the detection reagent, cells were washed with PBS containing 1% BSA. The cells were finally resuspended in 200 μl PBS with 1% BSA and acquired using a BD FACSLyric flow cytometer system (BD Biosciences). Samples were analyzed using flowJo software (BD Biosciences).
For orientation: In flow cytometry, cells or beads pass a laser one at a time.

T1 sequence (P02786 whole entry): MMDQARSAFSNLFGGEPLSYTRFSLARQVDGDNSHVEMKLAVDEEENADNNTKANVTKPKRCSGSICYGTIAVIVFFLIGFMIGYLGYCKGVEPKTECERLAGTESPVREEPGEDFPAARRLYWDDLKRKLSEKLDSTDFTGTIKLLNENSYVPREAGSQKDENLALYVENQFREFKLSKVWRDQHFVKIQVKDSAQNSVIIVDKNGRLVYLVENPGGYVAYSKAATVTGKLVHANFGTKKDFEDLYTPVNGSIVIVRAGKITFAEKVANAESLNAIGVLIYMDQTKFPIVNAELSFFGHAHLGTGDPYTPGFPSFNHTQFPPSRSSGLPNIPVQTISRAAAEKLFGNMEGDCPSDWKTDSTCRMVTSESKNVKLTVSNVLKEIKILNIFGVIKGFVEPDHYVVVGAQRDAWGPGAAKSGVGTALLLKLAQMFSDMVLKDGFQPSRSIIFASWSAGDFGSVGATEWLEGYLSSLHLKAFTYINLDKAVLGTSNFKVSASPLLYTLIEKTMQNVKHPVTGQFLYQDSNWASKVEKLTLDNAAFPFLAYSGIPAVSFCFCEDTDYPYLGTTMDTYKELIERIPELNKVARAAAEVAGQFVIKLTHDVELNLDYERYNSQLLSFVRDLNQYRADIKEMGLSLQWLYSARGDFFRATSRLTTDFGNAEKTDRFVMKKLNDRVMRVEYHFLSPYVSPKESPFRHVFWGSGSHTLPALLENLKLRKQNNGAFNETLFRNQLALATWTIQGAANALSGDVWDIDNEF

B1: 2A-3 #10 (bispecific antibody, human IgG1, kappa)
heavy: not shown
chain: DIVMTQAPLSLPVSLGDQASISCRSSQSIVHSNGNTYLEWYLQKPGQSPKLLIYKVSNRFSGVPDRFSGSGSGTDFTLKISRVEAEDLGIYYCFQGSHVPPTFGGGTKLEIKRTVAAPSVFIFPPSDEQLKSGTASVVCLLNNFYPREAKVQWKVDNALQSGNSQESVTEQDSKDSTYSLSSTLTLSKADYEKHKVYACEVTHQGLSSPVTKSFNRGECGGGGSGGGGSGGGGSDIQMTQSPSSVSASVGDRVTITCKSSQSLLYSTNQKNYLAWYQQKPGKAPKLLIYWASTRESGVPSRFSGSGSGTDFTLTISSLQPEDFATYYCQQYFIYPRTFGQGTKVEIKGGGGSGGGGSGGGGSEVQLVQSGAEVKKPGSSVKVSCKASGYIFTDYNMDWVRQAPGQGLEWIGDINPDADTTSYNEKFKGRATLTVDKSTSTAYMELSSLRSEDTAVYYCARGGYSGSSYYHPMDYWGQGTLVTVSSGGGGSGGGGSGGGGSGGGGSDIVMTQAPLSLPVSLGDQASISCRSSQSIVHSNGNTYLEWYLQKPGQSPKLLIYKVSNRFSGVPDRFSGSGSGTDFTLKISRVEAEDLGIYYCFQGSHVPPTFGGGTKLEIKRTVAAPSVFIFPPSDEQLKSGTASVVCLLNNFYPREAKVQWKVDNALQSGNSQESVTEQDSKDSTYSLSSTLTLSKADYEKHKVYACEVTHQGLSSPVTKSFNRGEC
notes: also called Gen 2A construct #10; VL first
Turning to B1, the binding result was “binds”.

B2: 2A-3 #7 (bispecific antibody, human IgG1, kappa)
heavy: not shown
chain: DIVMTQAPLSLPVSLGDQASISCRSSQSIVHSNGNTYLEWYLQKPGQSPKLLIYKVSNRFSGVPDRFSGSGSGTDFTLKISRVEAEDLGIYYCFQGSHVPPTFGGGTKLEIKRTVAAPSVFIFPPSDEQLKSGTASVVCLLNNFYPREAKVQWKVDNALQSGNSQESVTEQDSKDSTYSLSSTLTLSKADYEKHKVYACEVTHQGLSSPVTKSFNRGECGGGGSGGGGSGGGGSGGGGSGGGGSEVQLVQSGAEVKKPGSSVKVSCKASGYIFTDYNMDWVRQAPGQGLEWIGDINPDADTTSYNEKFKGRATLTVDKSTSTAYMELSSLRSEDTAVYYCARGGYSGSSYYHPMDYWGQGTLVTVSSGGGGSGGGGSGGGGSDIQMTQSPSSVSASVGDRVTITCKSSQSLLYSTNQKNYLAWYQQKPGKAPKLLIYWASTRESGVPSRFSGSGSGTDFTLTISSLQPEDFATYYCQQYFIYPRTFGQGTKVEIKGGGGSGGGGSGGGGSGGGGSGGGGSDIVMTQAPLSLPVSLGDQASISCRSSQSIVHSNGNTYLEWYLQKPGQSPKLLIYKVSNRFSGVPDRFSGSGSGTDFTLKISRVEAEDLGIYYCFQGSHVPPTFGGGTKLEIKRTVAAPSVFIFPPSDEQLKSGTASVVCLLNNFYPREAKVQWKVDNALQSGNSQESVTEQDSKDSTYSLSSTLTLSKADYEKHKVYACEVTHQGLSSPVTKSFNRGEC
notes: also called Gen 2A construct #7; VH first
B2: the binding result is recorded as “binds”.

B3: 2A-3 #11 (bispecific antibody, human IgG1, kappa)
heavy: not shown
chain: DIVMTQAPLSLPVSLGDQASISCRSSQSIVHSNGNTYLEWYLQKPGQSPKLLIYKVSNRFSGVPDRFSGSGSGTDFTLKISRVEAEDLGIYYCFQGSHVPPTFGGGTKLEIKRTVAAPSVFIFPPSDEQLKSGTASVVCLLNNFYPREAKVQWKVDNALQSGNSQESVTEQDSKDSTYSLSSTLTLSKADYEKHKVYACEVTHQGLSSPVTKSFNRGECGGGGSDIQMTQSPSSVSASVGDRVTITCKSSQSLLYSTNQKNYLAWYQQKPGKAPKLLIYWASTRESGVPSRFSGSGSGTDFTLTISSLQPEDFATYYCQQYFIYPRTFGQGTKVEIKGGGGSGGGGSGGGGSEVQLVQSGAEVKKPGSSVKVSCKASGYIFTDYNMDWVRQAPGQGLEWIGDINPDADTTSYNEKFKGRATLTVDKSTSTAYMELSSLRSEDTAVYYCARGGYSGSSYYHPMDYWGQGTLVTVSSGGGGSGGGGSGGGGSGGGGSGGGGSDIVMTQAPLSLPVSLGDQASISCRSSQSIVHSNGNTYLEWYLQKPGQSPKLLIYKVSNRFSGVPDRFSGSGSGTDFTLKISRVEAEDLGIYYCFQGSHVPPTFGGGTKLEIKRTVAAPSVFIFPPSDEQLKSGTASVVCLLNNFYPREAKVQWKVDNALQSGNSQESVTEQDSKDSTYSLSSTLTLSKADYEKHKVYACEVTHQGLSSPVTKSFNRGEC
notes: also called Gen 2A construct #11; VL first
On to B3, for which the binding result is reported as “binds”.

B4: 2A-3 #9 (bispecific antibody, human IgG1, kappa)
heavy: not shown
chain: DIVMTQAPLSLPVSLGDQASISCRSSQSIVHSNGNTYLEWYLQKPGQSPKLLIYKVSNRFSGVPDRFSGSGSGTDFTLKISRVEAEDLGIYYCFQGSHVPPTFGGGTKLEIKRTVAAPSVFIFPPSDEQLKSGTASVVCLLNNFYPREAKVQWKVDNALQSGNSQESVTEQDSKDSTYSLSSTLTLSKADYEKHKVYACEVTHQGLSSPVTKSFNRGECGGGGSGGGGSDIQMTQSPSSVSASVGDRVTITCKSSQSLLYSTNQKNYLAWYQQKPGKAPKLLIYWASTRESGVPSRFSGSGSGTDFTLTISSLQPEDFATYYCQQYFIYPRTFGQGTKVEIKGGGGSGGGGSGGGGSEVQLVQSGAEVKKPGSSVKVSCKASGYIFTDYNMDWVRQAPGQGLEWIGDINPDADTTSYNEKFKGRATLTVDKSTSTAYMELSSLRSEDTAVYYCARGGYSGSSYYHPMDYWGQGTLVTVSSGGGGSGGGGSGGGGSGGGGSDIVMTQAPLSLPVSLGDQASISCRSSQSIVHSNGNTYLEWYLQKPGQSPKLLIYKVSNRFSGVPDRFSGSGSGTDFTLKISRVEAEDLGIYYCFQGSHVPPTFGGGTKLEIKRTVAAPSVFIFPPSDEQLKSGTASVVCLLNNFYPREAKVQWKVDNALQSGNSQESVTEQDSKDSTYSLSSTLTLSKADYEKHKVYACEVTHQGLSSPVTKSFNRGEC
notes: also called Gen 2A construct #9; VL first
Consider B4, for which the binding result is given as “binds”.

B5: 2A-3 #4 (bispecific antibody, human IgG1, kappa)
heavy: not shown
chain: DIVMTQAPLSLPVSLGDQASISCRSSQSIVHSNGNTYLEWYLQKPGQSPKLLIYKVSNRFSGVPDRFSGSGSGTDFTLKISRVEAEDLGIYYCFQGSHVPPTFGGGTKLEIKRTVAAPSVFIFPPSDEQLKSGTASVVCLLNNFYPREAKVQWKVDNALQSGNSQESVTEQDSKDSTYSLSSTLTLSKADYEKHKVYACEVTHQGLSSPVTKSFNRGECGGGGSEVQLVQSGAEVKKPGSSVKVSCKASGYIFTDYNMDWVRQAPGQGLEWIGDINPDADTTSYNEKFKGRATLTVDKSTSTAYMELSSLRSEDTAVYYCARGGYSGSSYYHPMDYWGQGTLVTVSSGGGGSGGGGSGGGGSDIQMTQSPSSVSASVGDRVTITCKSSQSLLYSTNQKNYLAWYQQKPGKAPKLLIYWASTRESGVPSRFSGSGSGTDFTLTISSLQPEDFATYYCQQYFIYPRTFGQGTKVEIKGGGGSGGGGSGGGGSGGGGSGGGGSDIVMTQAPLSLPVSLGDQASISCRSSQSIVHSNGNTYLEWYLQKPGQSPKLLIYKVSNRFSGVPDRFSGSGSGTDFTLKISRVEAEDLGIYYCFQGSHVPPTFGGGTKLEIKRTVAAPSVFIFPPSDEQLKSGTASVVCLLNNFYPREAKVQWKVDNALQSGNSQESVTEQDSKDSTYSLSSTLTLSKADYEKHKVYACEVTHQGLSSPVTKSFNRGEC
notes: also called Gen 2A construct #4; VH first
As for B5, the binding result was “binds”.

B6: 2A-3 #2 (bispecific antibody, human IgG1, kappa)
heavy: not shown
chain: DIVMTQAPLSLPVSLGDQASISCRSSQSIVHSNGNTYLEWYLQKPGQSPKLLIYKVSNRFSGVPDRFSGSGSGTDFTLKISRVEAEDLGIYYCFQGSHVPPTFGGGTKLEIKRTVAAPSVFIFPPSDEQLKSGTASVVCLLNNFYPREAKVQWKVDNALQSGNSQESVTEQDSKDSTYSLSSTLTLSKADYEKHKVYACEVTHQGLSSPVTKSFNRGECGGGGSGGGGSEVQLVQSGAEVKKPGSSVKVSCKASGYIFTDYNMDWVRQAPGQGLEWIGDINPDADTTSYNEKFKGRATLTVDKSTSTAYMELSSLRSEDTAVYYCARGGYSGSSYYHPMDYWGQGTLVTVSSGGGGSGGGGSGGGGSDIQMTQSPSSVSASVGDRVTITCKSSQSLLYSTNQKNYLAWYQQKPGKAPKLLIYWASTRESGVPSRFSGSGSGTDFTLTISSLQPEDFATYYCQQYFIYPRTFGQGTKVEIKGGGGSGGGGSGGGGSGGGGSDIVMTQAPLSLPVSLGDQASISCRSSQSIVHSNGNTYLEWYLQKPGQSPKLLIYKVSNRFSGVPDRFSGSGSGTDFTLKISRVEAEDLGIYYCFQGSHVPPTFGGGTKLEIKRTVAAPSVFIFPPSDEQLKSGTASVVCLLNNFYPREAKVQWKVDNALQSGNSQESVTEQDSKDSTYSLSSTLTLSKADYEKHKVYACEVTHQGLSSPVTKSFNRGEC
notes: also called Gen 2A construct #2; VH first
Consider B6, for which the binding result is reported as “binds”.

B7: 2A-3 #1 (bispecific antibody, human IgG1, kappa)
heavy: not shown
chain: DIVMTQAPLSLPVSLGDQASISCRSSQSIVHSNGNTYLEWYLQKPGQSPKLLIYKVSNRFSGVPDRFSGSGSGTDFTLKISRVEAEDLGIYYCFQGSHVPPTFGGGTKLEIKRTVAAPSVFIFPPSDEQLKSGTASVVCLLNNFYPREAKVQWKVDNALQSGNSQESVTEQDSKDSTYSLSSTLTLSKADYEKHKVYACEVTHQGLSSPVTKSFNRGECGGGGSEVQLVQSGAEVKKPGSSVKVSCKASGYIFTDYNMDWVRQAPGQGLEWIGDINPDADTTSYNEKFKGRATLTVDKSTSTAYMELSSLRSEDTAVYYCARGGYSGSSYYHPMDYWGQGTLVTVSSGGGGSGGGGSGGGGSDIQMTQSPSSVSASVGDRVTITCKSSQSLLYSTNQKNYLAWYQQKPGKAPKLLIYWASTRESGVPSRFSGSGSGTDFTLTISSLQPEDFATYYCQQYFIYPRTFGQGTKVEIKGGGGSGGGGSGGGGSGGGGSDIVMTQAPLSLPVSLGDQASISCRSSQSIVHSNGNTYLEWYLQKPGQSPKLLIYKVSNRFSGVPDRFSGSGSGTDFTLKISRVEAEDLGIYYCFQGSHVPPTFGGGTKLEIKRTVAAPSVFIFPPSDEQLKSGTASVVCLLNNFYPREAKVQWKVDNALQSGNSQESVTEQDSKDSTYSLSSTLTLSKADYEKHKVYACEVTHQGLSSPVTKSFNRGEC
notes: also called Gen 2A construct #1; VH first
For the molecule B7, the binding result was “binds”.
